Reference: the supplement of paper PMC7877785
± gives the uncertainty stated by the source.

Assay: self-splicing fitness, log relative to wild type (ln ratio); higher = more splicing; Tetrahymena group I intron in knt gene, E. coli kanamycin selection, DiMSum; sequences stand for … in CUCUCU…GGAGGGAAAAGUUAUCAGGCAUGCACCUGGUAGCUAGUCUUUAAACCAAUAGAUUGCAUCGGUUUAAAAGGCAAGACCGUCAAAUUGCGGGAAAGGGGUCAACAGCCGUUCAGUACCAAGUCUCAGGGGAAACUUUGAGAUGGCCUUGCAAAGGGUAUGGUAAUAAGCUGACGGACAUGGUCCUAACCACGCAGCCAAGUCCUAAGUCAACAGAUCUUCUGUUGAUAUGGAUGCAGUUCACAGACUAAAUGUCGGUCGGGGAAGAUGUAUUCUUCUCAUAAGAUAUAGUCGGACCUCUCCUUAAUGGGAGCUAGCGGAUGAAGUGAUGCAACACUGGAGCCGCUGGGAACUAAUUUGUAUGCGAAAGUAUAUUGAUUAGUUUUGGAGUACUCGUGGUCG
Procedure, shortened: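 Six replicate transformations of E. coli BL21(DE3) with a pET-22b(+) library were grown overnight at 37°C or 30°C. The library randomised all eight P1ex-region intron nucleotides, the intron lying in the knt kanamycin-resistance gene, and plates were LB agar with or without 25 μg/mL kanamycin plus 100 μg/mL carbenicillin, 50 μM IPTG and 0.2% rhamnose. Pooled colonies were amplicon-sequenced on an Illumina HiSeq 2500, and fitness is the DiMSum error-weighted combination of wild-type-normalised replicate fold changes, kanamycin versus none.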

Row | Sequence | self-splicing fitness (ln) (30 °C) | self-splicing fitness (ln) (37 °C)
1 | ACUGAGCAAUAUUACGUGGU | -4.07 ± 0.14 | -2.56 ± 0.13
2 | CCACAGCAAUAUUACGAGAA | -2.74 ± 0.26 | -3.69 ± 0.39
3 | GGAUAGCAAUAUUACGGGAG | – | -2.52 ± 0.21
4 | GAUAAGCAAUAUUACGCGAU | – | -2.82 ± 0.26
5 | GUUCAGCAAUAUUACGCAUC | -0.592 ± 0.12 | -0.361 ± 0.14
6 | UGGCAGCAAUAUUACGUCAU | -4.47 ± 0.33 | -2.67 ± 0.26
7 | AGUCAGCAAUAUUACGUAUG | -3.48 ± 0.18 | -2.43 ± 0.19
8 | CCCGAGCAAUAUUACGACGA | -3.44 ± 0.43 | -1.6 ± 0.2
9 | UAUAAGCAAUAUUACGGCCG | 0.336 ± 0.23 | 0.0314 ± 0.26
10 | UAGAAGCAAUAUUACGGAAC | -1.25 ± 0.34 | –
11 | CUUGAGCAAUAUUACGCUUC | -2.91 ± 0.28 | -1.96 ± 0.45
12 | GGUCAGCAAUAUUACGCAGC | -1.76 ± 0.14 | -0.838 ± 0.13
13 | UCUAAGCAAUAUUACGAUAG | -1.15 ± 0.07 | -0.499 ± 0.1
14 | GCCAAGCAAUAUUACGGGGA | -0.604 ± 0.065 | 0.0408 ± 0.085
15 | CAAGAGCAAUAUUACGUCGG | -1.4 ± 0.087 | -1.37 ± 0.11
16 | GAGCAGCAAUAUUACGGUAA | -1.95 ± 0.13 | -0.00417 ± 0.12
17 | AUUGAGCAAUAUUACGGCCC | – | 0.679 ± 0.5
18 | GCUUAGCAAUAUUACGACGA | -0.927 ± 0.16 | -0.516 ± 0.13
19 | ACGAAGCAAUAUUACGCUUU | -3.88 ± 0.22 | -2.63 ± 0.22
20 | UCCCAGCAAUAUUACGCUGU | -3.99 ± 0.23 | -2.18 ± 0.23
21 | GAGGAGCAAUAUUACGCAGC | – | -1.04 ± 0.44
22 | UGUGAGCAAUAUUACGAAGA | -2.48 ± 0.37 | –
23 | AAUCAGCAAUAUUACGACGA | -0.461 ± 0.082 | 0.386 ± 0.1
24 | CAUUAGCAAUAUUACGAUCA | -2.81 ± 0.33 | -1.46 ± 0.23
25 | CGGUAGCAAUAUUACGGACG | -0.708 ± 0.1 | -0.837 ± 0.13
26 | CUCAAGCAAUAUUACGGGAC | -3.7 ± 0.33 | -2.14 ± 0.3
27 | GCACAGCAAUAUUACGAUGU | -2.05 ± 0.079 | -0.389 ± 0.088

Row | Sequence | self-splicing fitness (ln) (30 °C) | self-splicing fitness (ln) (37 °C)
28 | GACCAGCAAUAUUACGGCCU | -2.51 ± 0.13 | -0.969 ± 0.11
29 | GGUGAGCAAUAUUACGCAAU | -3.03 ± 0.32 | -1.94 ± 0.43
30 | AGUGAGCAAUAUUACGUCGC | -2.66 ± 0.41 | –
31 | GGCUAGCAAUAUUACGAUUG | -1.67 ± 0.12 | -1.47 ± 0.13
32 | CUAGAGCAAUAUUACGUACG | -0.818 ± 0.082 | 0.268 ± 0.12
33 | CGUUAGCAAUAUUACGACGU | -2.74 ± 0.14 | -2.05 ± 0.16
34 | GGCUAGCAAUAUUACGAAUU | -0.487 ± 0.19 | -0.299 ± 0.15
35 | ACCAAGCAAUAUUACGCUCC | -1.35 ± 0.17 | -0.621 ± 0.25
36 | GUAGAGCAAUAUUACGAUGC | -0.0786 ± 0.15 | -0.434 ± 0.13
37 | GACAAGCAAUAUUACGCAGG | -3 ± 0.13 | -1.71 ± 0.13
38 | UUUUAGCAAUAUUACGAAUA | -1.26 ± 0.25 | -1.04 ± 0.16
39 | GGUGAGCAAUAUUACGUAUG | -3.26 ± 0.47 | -0.0178 ± 0.18
40 | ACCAAGCAAUAUUACGCCAC | -1.48 ± 0.31 | -2.12 ± 0.3
41 | UUCUAGCAAUAUUACGAGGU | -3.27 ± 0.31 | -1.53 ± 0.2
42 | GUAGAGCAAUAUUACGACUG | -1.22 ± 0.15 | -1.12 ± 0.24
43 | AAGUAGCAAUAUUACGGGUG | -3.43 ± 0.17 | -1.14 ± 0.12
44 | CCGCAGCAAUAUUACGCGCC | -2.71 ± 0.25 | -2.02 ± 0.47
45 | AAACAGCAAUAUUACGCGGC | -3.54 ± 0.12 | -2.7 ± 0.12
46 | CGGAAGCAAUAUUACGGAGG | -1.25 ± 0.15 | -1.01 ± 0.21
47 | UAUAAGCAAUAUUACGGCUG | 0.381 ± 0.13 | 0.0603 ± 0.14
48 | GUCCAGCAAUAUUACGUGAA | 0.0486 ± 0.079 | 0.617 ± 0.098
49 | CAGAAGCAAUAUUACGGAAG | -1.65 ± 0.077 | -1.35 ± 0.095
50 | CCUAAGCAAUAUUACGUAUA | -3 ± 0.15 | -2.67 ± 0.17
51 | UUUCAGCAAUAUUACGGAUA | -0.515 ± 0.11 | -0.565 ± 0.11
52 | CCGUAGCAAUAUUACGACGC | – | -3.08 ± 0.38
53 | UGUUAGCAAUAUUACGCAGC | – | -2.47 ± 0.38
54 | ACCGAGCAAUAUUACGGCCU | -0.622 ± 0.086 | 0.418 ± 0.11

Row | Sequence | self-splicing fitness (ln) (30 °C) | self-splicing fitness (ln) (37 °C)
55 | ACCUAGCAAUAUUACGUUUC | -3.55 ± 0.13 | -1.94 ± 0.13
56 | ACGCAGCAAUAUUACGGGCA | -1.08 ± 0.081 | -0.293 ± 0.094
57 | CCGCAGCAAUAUUACGCGGA | -3.03 ± 0.29 | -3.11 ± 0.3
58 | GUCCAGCAAUAUUACGCCUC | -0.866 ± 0.12 | 0.705 ± 0.15
59 | UGCUAGCAAUAUUACGUGUC | -3.7 ± 0.42 | -2.72 ± 0.38
60 | GACUAGCAAUAUUACGCAAA | -1.49 ± 0.15 | -1.88 ± 0.23
61 | UUACAGCAAUAUUACGUCUC | -2.98 ± 0.28 | -2.3 ± 0.22
62 | UUCCAGCAAUAUUACGCAGG | -3.53 ± 0.23 | -2.57 ± 0.36
63 | CGUGAGCAAUAUUACGCUGG | -1.7 ± 0.15 | -1.47 ± 0.18
64 | AUAGAGCAAUAUUACGGCCU | -0.822 ± 0.2 | -0.365 ± 0.21
65 | CGCGAGCAAUAUUACGACCA | -1.71 ± 0.26 | -2.4 ± 0.29
66 | UCCAAGCAAUAUUACGUUCG | -3.57 ± 0.27 | -2.2 ± 0.21
67 | UUCGAGCAAUAUUACGGUGC | -3.24 ± 0.31 | -2.29 ± 0.29
68 | UAAGAGCAAUAUUACGCGGG | -3.49 ± 0.37 | -3.91 ± 0.36
69 | UAUCAGCAAUAUUACGGCAC | -2.52 ± 0.17 | -0.753 ± 0.14
70 | CGUGAGCAAUAUUACGGGUA | – | -2.39 ± 0.38
71 | UACUAGCAAUAUUACGUCCU | -1 ± 0.13 | -1.26 ± 0.15
72 | GGGCAGCAAUAUUACGGCAG | -2.41 ± 0.13 | -0.994 ± 0.14
73 | UGAUAGCAAUAUUACGAAAU | -2.83 ± 0.34 | -2.19 ± 0.27
74 | GACGAGCAAUAUUACGUACC | -3.61 ± 0.28 | -1.75 ± 0.21
75 | CGCUAGCAAUAUUACGCUUA | -3.03 ± 0.33 | -2.75 ± 0.27
76 | CCUUAGCAAUAUUACGAAGU | -2.21 ± 0.15 | -1.93 ± 0.12
77 | CCGAAGCAAUAUUACGGCUG | -1.53 ± 0.092 | -0.38 ± 0.11
78 | GAUGAGCAAUAUUACGGGCA | -1.87 ± 0.2 | -1.88 ± 0.28
79 | CUAUAGCAAUAUUACGCGUG | -1.27 ± 0.1 | -0.122 ± 0.12
